In the experiment the target is hACE2-NN-Fc 5mut (human) (UniProt Q9BYF1). The experiment in a line: SPR. (SPR reads the build-up and loss of mass on a sensor chip optically.)

For the substance “soluble monomeric SARS2-RBD (from UniProt P0DTC2) (domain or fragment)”, the dissociation constant Kd (commonly the concentration at which binding is half-saturated) worked out at 5.45 nM.

The values above are taken from PMC8059821.
